# Laboratory results reported in IntAct's records for PubMed 19765570.
# B1: Guanine nucleotide-binding protein alpha-4 subunit (Dictyostelium discoideum (Slime mold)), P34042 (parent)
# chain: MRFKCFGSEETEQSSKIDKSIETDRRKLRKDVKLLLLGPGESGKSTIFKQMKIIQEDGGYSVEELLEYRAFVYSNCISQMEALLTASAKLNIELEVENKQRAANVLRRTIGNEPWLLLAADIKHLWEDKGIKETYAQKDKHFQLNDSAAYFFDNIDRYMREDFVPNEQDVLRCRVRTTGIQESEFTFDKIRLKIVDVGGQRSQRRKWIHCFDCVTAVIFVAAMSDYDQVLREDESVNRTRESLALFKEIVNCDYFKETPIVLFLNKKDLFKEKLKRVPLQSCFSDYTGPNKYKDAAMFIQSQYLAQGPSPRTIYTHATCAVDTENIKFVFRAVRQTILSQALEHF
# partner: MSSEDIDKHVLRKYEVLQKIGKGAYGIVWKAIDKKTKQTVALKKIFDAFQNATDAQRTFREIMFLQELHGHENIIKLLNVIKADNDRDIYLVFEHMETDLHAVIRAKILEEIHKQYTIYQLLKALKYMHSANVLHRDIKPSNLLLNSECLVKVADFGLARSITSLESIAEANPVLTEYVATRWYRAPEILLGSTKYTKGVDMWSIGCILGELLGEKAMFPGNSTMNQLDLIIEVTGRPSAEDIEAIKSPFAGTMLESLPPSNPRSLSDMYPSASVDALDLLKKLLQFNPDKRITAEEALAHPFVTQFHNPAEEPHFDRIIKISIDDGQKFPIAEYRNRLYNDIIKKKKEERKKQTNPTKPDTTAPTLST
# Variants of: B1
# Settings: with erk2_dicdi erkB
row,effect of a mutation on the interaction,Variant
1,decreasing interaction,MRFKCFGSEETEQSSKIDKSIETDRRKLRKDVKLLLLGPGESGKSTIFKQMKIIQEDGGYSVEELLEYRAFVYSNCISQMEALLTASAKLNIELEVENKQRAANVLRRTIGNEPWLLLAADIKHLWEDKGIKETYAQKDKHFQLNDSAAYFFDNIDRYMREDFVPNEQDVLRCRVRTTGIQESEFTFDKIRLKIVDVGGLRSQRRKWIHCFDCVTAVIFVAAMSDYDQVLREDESVNRTRESLALFKEIVNCDYFKETPIVLFLNKKDLFKEKLKRVPLQSCFSDYTGPNKYKDAAMFIQSQYLAQGPSPRTIYTHATCAVDTENIKFVFRAVRQTILSQALEHF [Q200L]
2,decreasing interaction,MRFKCFGSEETEQSSKIDKSIETDRRKLRKDVKLLLLGPGESGKSTIFKQMKIIQEDGGYSVEELLEYRAFVYSNCISQMEALLTASAKLNIELEVENKQRAANVLEETIGNEPWLLLAADIKHLWEDKGIKETYAQKDKHFQLNDSAAYFFDNIDRYMREDFVPNEQDVLRCRVRTTGIQESEFTFDKIRLKIVDVGGQRSQRRKWIHCFDCVTAVIFVAAMSDYDQVLREDESVNRTRESLALFKEIVNCDYFKETPIVLFLNKKDLFKEKLKRVPLQSCFSDYTGPNKYKDAAMFIQSQYLAQGPSPRTIYTHATCAVDTENIKFVFRAVRQTILSQALEHF [R107E;R108E]
